Assay results from US6881719B2, “β-turn peptidomimetic cyclic compounds” (McGill University, priority 2000, dated 2005).
Where “and” joins values, the source holds several entries; their conditions need not be identical. Equal values may be shown once. Each block holds one molecule with its values, some of them ahead of it. Positions of bridges follow the written chain, without caps; N, C: chain ends. Non-standard residues stand in square brackets, D forms with d. 5‑nitrobenzoyl = N-terminal 5-nitrobenzoyl group, introduced by coupling 2-fluoro-5-nitrobenzoyl chloride; hSer = N[C@@H](CCO)C(=O)O

Tests used:
[1] = target: human TrkA expressed on transfected cells (4-3.6 cells; NIH3T3-TrkA cells) (human) (UniProt P04629); test: FACScan, 4-3.6 cells, avidin-FITC
Chain of human TrkA expressed on transfected cells (4-3.6 cells; NIH3T3-TrkA cells) (human) (P04629 33-796): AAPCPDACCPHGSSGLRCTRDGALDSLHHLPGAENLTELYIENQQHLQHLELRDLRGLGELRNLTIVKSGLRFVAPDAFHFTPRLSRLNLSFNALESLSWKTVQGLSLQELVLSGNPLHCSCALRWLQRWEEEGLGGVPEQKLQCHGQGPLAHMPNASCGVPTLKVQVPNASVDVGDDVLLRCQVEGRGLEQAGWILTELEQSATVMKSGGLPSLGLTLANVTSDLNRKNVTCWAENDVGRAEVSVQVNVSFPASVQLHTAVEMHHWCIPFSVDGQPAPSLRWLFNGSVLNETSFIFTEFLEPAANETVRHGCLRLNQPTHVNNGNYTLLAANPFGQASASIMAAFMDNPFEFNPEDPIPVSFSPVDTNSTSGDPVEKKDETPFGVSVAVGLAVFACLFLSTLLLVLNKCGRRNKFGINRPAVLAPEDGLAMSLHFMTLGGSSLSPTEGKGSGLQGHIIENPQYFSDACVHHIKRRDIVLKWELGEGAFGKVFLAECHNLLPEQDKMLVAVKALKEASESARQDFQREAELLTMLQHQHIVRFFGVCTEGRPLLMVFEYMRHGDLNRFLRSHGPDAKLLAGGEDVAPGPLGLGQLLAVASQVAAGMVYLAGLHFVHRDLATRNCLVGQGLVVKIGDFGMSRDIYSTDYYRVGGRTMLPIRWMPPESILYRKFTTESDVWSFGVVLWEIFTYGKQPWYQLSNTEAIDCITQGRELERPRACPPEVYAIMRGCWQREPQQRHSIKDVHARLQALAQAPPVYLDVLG

[2] = target: p75 NGF receptor on B104 rat neuroblastoma cells and 4-3.6 cells (rat) (UniProt P07174); test: FACScan, B104 cells (p75+ TrkA-), avidin-FITC
Chain of p75 NGF receptor on B104 rat neuroblastoma cells and 4-3.6 cells (rat) (P07174 30-425): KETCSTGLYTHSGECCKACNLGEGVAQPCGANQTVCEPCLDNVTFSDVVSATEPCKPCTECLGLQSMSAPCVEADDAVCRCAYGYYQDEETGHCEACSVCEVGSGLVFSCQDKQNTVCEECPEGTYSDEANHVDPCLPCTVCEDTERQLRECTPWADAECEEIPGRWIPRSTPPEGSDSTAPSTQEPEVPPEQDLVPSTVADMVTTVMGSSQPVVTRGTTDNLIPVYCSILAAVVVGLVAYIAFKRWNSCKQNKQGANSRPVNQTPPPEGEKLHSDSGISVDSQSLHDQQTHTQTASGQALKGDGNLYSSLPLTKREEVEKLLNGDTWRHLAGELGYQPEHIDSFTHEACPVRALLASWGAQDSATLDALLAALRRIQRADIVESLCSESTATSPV

[3] = target: human TrkA expressed on transfected cells (4-3.6 cells; NIH3T3-TrkA cells) (human) (UniProt P04629); test: FACScan, 4-3.6 cells (p75+ TrkA+), avidin-FITC
[4] = target: T1, NIH3T3 fibroblasts expressing TrkC (Homo sapiens, UniProt Q16288); test: Cell survival (MTT), NIH-TrkC; assay type: cell-based; details: 72 hours
T1 construct: expressed in transfected cells; host or cells: NIH3T3 fibroblasts
T1 sequence (Q16288 32-839): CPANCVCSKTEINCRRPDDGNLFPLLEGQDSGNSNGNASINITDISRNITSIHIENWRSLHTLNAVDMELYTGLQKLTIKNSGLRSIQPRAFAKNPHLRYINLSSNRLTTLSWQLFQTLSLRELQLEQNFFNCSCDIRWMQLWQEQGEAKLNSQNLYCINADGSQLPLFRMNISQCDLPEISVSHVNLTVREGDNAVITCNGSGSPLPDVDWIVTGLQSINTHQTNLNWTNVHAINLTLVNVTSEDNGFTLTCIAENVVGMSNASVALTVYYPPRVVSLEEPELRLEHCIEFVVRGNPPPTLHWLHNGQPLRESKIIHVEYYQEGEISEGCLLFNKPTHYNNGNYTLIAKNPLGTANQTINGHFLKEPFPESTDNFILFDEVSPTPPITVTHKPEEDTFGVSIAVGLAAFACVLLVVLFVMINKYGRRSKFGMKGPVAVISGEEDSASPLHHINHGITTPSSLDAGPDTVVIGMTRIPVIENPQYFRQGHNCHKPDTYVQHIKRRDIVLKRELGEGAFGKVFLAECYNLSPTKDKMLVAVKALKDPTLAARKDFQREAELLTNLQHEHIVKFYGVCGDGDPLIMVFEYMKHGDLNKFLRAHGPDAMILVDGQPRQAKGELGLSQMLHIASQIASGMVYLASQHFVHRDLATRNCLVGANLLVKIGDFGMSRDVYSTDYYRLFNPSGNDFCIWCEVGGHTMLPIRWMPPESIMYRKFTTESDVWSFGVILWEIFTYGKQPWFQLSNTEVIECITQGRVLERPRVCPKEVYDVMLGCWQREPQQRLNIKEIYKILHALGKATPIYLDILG
Source text: (§1) The 4-3.6 cells are B104 cells stably transfected with human trkA cDNA, and express equal levels of p75 and TrkA (TrkA+ p75+). For screening agents that activate or antagonize TrkC receptors, NIH3T3 fibroblasts were stably transfected with human TrkC cDNA. These cells respond to the ligand NT-3. For screening agents that activate or antagonize TrkA receptors, NIH3T3 fibroblasts were stably transfected with human TrkA cDNA. These cells respond to the ligand NGF.
(§2) Cell lines: 5,000 cells/well in protein-free media (PFHM-II, GIBCO, Toronto) containing 0.2% bovine serum albumin (BSA) (Crystalline fraction V, Sigma, St. Louis, Mo.) were seeded in 96 well plates (Falcon, Mississauga, Ontario). The cultures were untreated, or treated with the indicated test or control ligands. Cell viability was quantitated using the MTT assay after 56-72 hours of culture. […] The OD of untreated cells were subtracted. The higher optical density of untreated primary cultures is likely due to cellular heterogeneity and to endogenous production of limiting amounts of growth factors.

[5] = tested on: B104 cells; test: Cell survival control, B104 cells; assay type: cell-based, rat
Source text: as §1, §2

[6] = tested on: wild type HEK293 cells; test: Cell survival control, wild type HEK293 cells; assay type: cell-based
Description: as §2

[7] = tested on: TrkB-expressing HEK293 cells; test: Cell survival control, TrkB-expressing HEK293 cells; assay type: cell-based
Description: as §2

[8] = tested on: septal neuronal cultures; test: ChAT activity in septal neuronal cultures; assay type: cell-based, rat; details: day 8
Description: Cell cultures were established from the septal area of 17-day-old rat embryos. In brief, tissue was incubated in PBS containing trypsin and DNase. Tissue pieces then were mechanically dissociated. After centrifugation, the pellet was suspended in Leibovitz's L-15 medium. Cells were plated onto 96-multiwell NUNC dishes (10^5 cells/well) coated with poly-D-lysine (5 μg/ml). Pure cultures of septal neurons were treated 1 day after plating. Drugs, prepared in medium, were added directly to the cells without changing the initial medium. The incubation continued for 8 days, at which time ChAT activity was evaluated.
At day 8 of culture, the medium was aspirated, and ice-cold lysis buffer (10 mM sodium phosphate, pH 7.4/0.1% TritonX-100—Trade-mark) was added. ChAT activity assays were performed directly in the wells using Fonnum's method (Fonnum, 1975).

[9] = tested on: embryonic rat DRG primary neuronal cultures; test: Cell survival (MTT), primary DRG cultures; assay type: cell-based; details: 8 days;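 on % Protection: 100% equals survival with optimal NGF at 1 nM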
Description: Fetal rat DRG primary cultures were established from Sprague Dawley day 17 rat embryos. All ganglia were dissected and dissociated first enzymatically with trypsin and then mechanically. Dissociated cells were cultured (10^5 cells/well) in 96 well plates pre-coated with collagen, and grown for a total of 8 days in Neuro Basal Medium containing N2 supplement (GIBCO, Toronto), antibiotics, and L-glutamine. These DRG cultures are ˜85% TrkA-expressing and are heavily dependent on TrkA signals for survival.
Primary DRG cultures: After a total of 8 days of culture with the indicated test or control ligands, cell survival were studied using the 3(4,5-Dimethylthiazolyl-2)-2,5-diphenyl tetrazolium bromide colorimetric (MTT) assay, and by microscopic observation.
as §2

[10] = Proteolytic stability, then trophic assay on 4-3.6 cells; details: exposure to trypsin or pepsin (D3: 1 hour)
Description: The proteolytic stability of D3 versus trypsin and papain was assessed. D3 was first exposed to enzymatic treatment as described previously (Saragovi et al., 1992), followed by gauging its biological activity on 4-3.6 cells.

[11] = tested on: wild type NIH3T3 fibroblasts; test: Cell survival (MTT), NIH wt; assay type: cell-based; details: 72 hours
Source text: as §1, §2

[12] = target: recombinant baculovirus TrkA-extracellular domain protein (TrkA-ECD) (UniProt P04629); test: competition ELISA, mAb 5C3 2 nM on immobilized TrkA-ECD, competitor D3 5 µM
Chain of recombinant baculovirus TrkA-extracellular domain protein (TrkA-ECD) (P04629 33-423 limits assumed): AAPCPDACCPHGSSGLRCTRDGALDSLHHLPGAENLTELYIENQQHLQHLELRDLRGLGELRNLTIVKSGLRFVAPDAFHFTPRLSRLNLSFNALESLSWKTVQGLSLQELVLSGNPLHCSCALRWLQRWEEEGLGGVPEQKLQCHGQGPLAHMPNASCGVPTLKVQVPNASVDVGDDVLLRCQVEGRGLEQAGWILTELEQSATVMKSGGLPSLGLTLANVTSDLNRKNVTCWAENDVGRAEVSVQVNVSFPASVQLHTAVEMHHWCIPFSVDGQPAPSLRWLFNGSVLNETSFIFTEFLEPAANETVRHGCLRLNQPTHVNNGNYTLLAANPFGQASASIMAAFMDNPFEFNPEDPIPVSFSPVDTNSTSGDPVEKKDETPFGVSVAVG

[13] = target: recombinant baculovirus TrkA-extracellular domain protein (TrkA-ECD) (UniProt P04629); test: calculated from competition ELISA against mAb 5C3 on immobilized TrkA-ECD
[14] = target: recombinant baculovirus TrkA-extracellular domain protein (TrkA-ECD) (UniProt P04629); test: competition ELISA, mAb 5C3 2 nM on immobilized TrkA-ECD, competitor D3 1 µM
[15] = target: human TrkA expressed on transfected cells (4-3.6 cells; NIH3T3-TrkA cells) (human) (UniProt P04629); test: FACScan competition, 4-3.6 cells, mAb 5C3 1 nM, competitor D3 5 µM
[16] = target: human TrkA expressed on transfected cells (4-3.6 cells; NIH3T3-TrkA cells) (human) (UniProt P04629); test: FACScan competition, 4-3.6 cells, mAb 5C3 1 nM, competitor D3 1 µM
[17] = target: human TrkA expressed on transfected cells (4-3.6 cells; NIH3T3-TrkA cells) (human) (UniProt P04629); test: cell-based or functional assay
[18] = target: recombinant baculovirus TrkA-extracellular domain protein (TrkA-ECD) (UniProt P04629); test: competition ELISA, mAb 5C3 2 nM on immobilized TrkA-ECD, competitor D3 0.05 µM
[19] = target: human TrkA expressed on transfected cells (4-3.6 cells; NIH3T3-TrkA cells) (human) (UniProt P04629); test: estimated from FACScan competition against mAb 5C3 on 4-3.6 cells
[20] = target: human TrkA expressed on transfected cells (4-3.6 cells; NIH3T3-TrkA cells) (human) (UniProt P04629); test: FACScan, 4-3.6 cells (p75+ TrkA+), D3-biotin 20 µM with 10-fold molar excess of D3, avidin-FITC
[21] = target: recombinant baculovirus TrkA-extracellular domain protein (TrkA-ECD) (UniProt P04629); test: competition ELISA, mAb 5C3 2 nM on immobilized TrkA-ECD, competitor D3 40 µM
[22] = target: recombinant baculovirus TrkA-extracellular domain protein (TrkA-ECD) (UniProt P04629); test: competition ELISA, mAb 5C3 2 nM on immobilized TrkA-ECD, competitor D3 0.2 µM
[23] = target: p75 NGF receptor on B104 rat neuroblastoma cells and 4-3.6 cells (rat) (UniProt P07174); test: FACScan, B104 cells (p75+ TrkA-), D3-biotin 20 µM with 10-fold molar excess of D3, avidin-FITC
[24] = target: human TrkA expressed on transfected cells (4-3.6 cells; NIH3T3-TrkA cells) (human) (UniProt P04629); test: FACScan competition, 4-3.6 cells, mAb 5C3 1 nM, competitor D3 40 µM
[25] = target: TrkA on primary rat embryonic neurons (DRG and septal cultures) (rat, UniProt P35739 33-799); test: cell-based or functional assay
Chain of TrkA on primary rat embryonic neurons (DRG and septal cultures) (P35739 33-799): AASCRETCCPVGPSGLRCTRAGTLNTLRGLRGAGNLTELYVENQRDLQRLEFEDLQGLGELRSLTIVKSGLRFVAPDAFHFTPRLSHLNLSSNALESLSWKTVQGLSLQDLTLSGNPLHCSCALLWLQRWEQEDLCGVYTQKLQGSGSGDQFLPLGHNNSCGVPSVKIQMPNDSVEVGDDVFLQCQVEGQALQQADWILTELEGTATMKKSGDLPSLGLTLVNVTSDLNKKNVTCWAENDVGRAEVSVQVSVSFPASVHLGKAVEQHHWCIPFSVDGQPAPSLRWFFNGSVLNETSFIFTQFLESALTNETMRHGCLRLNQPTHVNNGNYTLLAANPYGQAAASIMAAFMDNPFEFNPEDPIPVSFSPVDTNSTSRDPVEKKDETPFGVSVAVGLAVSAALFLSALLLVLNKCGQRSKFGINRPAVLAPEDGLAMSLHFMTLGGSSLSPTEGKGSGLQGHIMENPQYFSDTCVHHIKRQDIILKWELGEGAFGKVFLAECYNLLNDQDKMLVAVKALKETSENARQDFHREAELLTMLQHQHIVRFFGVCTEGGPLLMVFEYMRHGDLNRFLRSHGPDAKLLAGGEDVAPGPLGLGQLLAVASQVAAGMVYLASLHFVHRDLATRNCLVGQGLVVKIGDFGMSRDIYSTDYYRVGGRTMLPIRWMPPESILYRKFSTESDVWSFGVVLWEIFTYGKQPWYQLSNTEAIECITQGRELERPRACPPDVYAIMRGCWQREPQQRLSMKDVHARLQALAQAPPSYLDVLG

[26] = target: p75 NGF receptor on B104 rat neuroblastoma cells and 4-3.6 cells (rat) (UniProt P07174); test: FACScan competition, 4-3.6 cells, mAb MC192 1 nM, competitor D3 40 µM
[27] = target: recombinant baculovirus TrkA-extracellular domain protein (TrkA-ECD) (UniProt P04629); test: competition ELISA, mAb 5C3 2 nM on immobilized TrkA-ECD, competitor D3 20 µM
[28] = target: human TrkA expressed on transfected cells (4-3.6 cells; NIH3T3-TrkA cells) (human) (UniProt P04629); test: FACScan competition, 4-3.6 cells, mAb 5C3 1 nM, competitor D3 0.20 µM

fold fluorescence over control peptide-biotin [1]: 4 fold | MCF [2]: 10 MCF | MCF [3]: 53 MCF
Molecule: D3-biotin (biotin derivative of D3) (peptide)

Molecule: NGF: neurotrophin nerve growth factor, natural ligand of TrkA
NIH-TrkC % Protection ([4]; 10 pM NGF): 2 ± 4% | NIH-TrkC % Protection ([4]; 1 nM NGF): 5 ± 6% | protection from apoptosis [5]: neither D3 nor NGF protected | protection from apoptosis [6]: neither D3 nor NGF protected | protection from apoptosis [7]: neither D3 nor NGF protected | ChAT Activity ([8]; 10 pM NGF): 0.42 ± 0.07 pmol Ach/min/well | ChAT Activity ([8]; 400 pM NGF): 0.72 ± 0.10 pmol Ach/min/well | % Protection ([9]; NGF 20 pM): 9 ± 1% | Optical Density ([9]; NGF 20 pM): 316 ± 11 | % Protection ([9]; NGF 500 pM): 68 ± 3% | Optical Density ([9]; NGF 500 pM): 535 ± 19 | Optical Density ([9]; NGF 1 nM): 823 ± 28 | % Protection ([9]; NGF 1 nM, relative to 1 nM NGF): 100 ± 4% | biological activity in trophic assays after enzymatic treatment [10]: lost all activity within minutes | NIH wt % Protection ([11]; 10 pM NGF): 5 ± 7% and 3 ± 5% | NIH wt % Protection ([11]; 1 nM NGF): 5 ± 12% and 4 ± 6%

% Binding of mAb 5C3 [12]: 43% | Kd [13]: 2000 nM | % Binding of mAb 5C3 [14]: 64% | % Maximal binding of mAb 5C3 [15]: 53% | % Maximal binding of mAb 5C3 [16]: 80% | % Protection (MTT, 4-3.6 cells), 10 µM D3 [17]: 8% | % Protection (MTT, 4-3.6 cells), 10 µM D3 + 10 pM NGF [17]: 55% | % Protection (MTT, NIH-TrkA), 10 µM D3 [17]: 8% | % Protection (MTT, NIH-TrkA), 10 µM D3 + 10 pM NGF [17]: 51% | intensity of the Mr 300 kDa band (putative TrkA·TrkA dimers) after cross-linking, standardized to 1 nM NGF (100%), 10 pM NGF + 10 µM D3 [17]: 77% | intensity of the Mr 300 kDa band (putative TrkA·TrkA dimers) after cross-linking, standardized to 1 nM NGF (100%), 10 µM D3 alone [17]: 21% | % Binding of mAb 5C3 [18]: 100% | Kd [19]: 2000 nM | MCF of D3-biotin in the presence of competitor D3 [20]: 17 MCF | % Binding of mAb 5C3 [21]: 31% | % Binding of mAb 5C3 [22]: 89% | MCF of D3-biotin in the presence of competitor D3 [23]: 11 MCF | % Maximal binding of mAb 5C3 [24]: 33% | ChAT Fold Increase, 0.2 µM D3 [25]: 1.23 fold | ChAT Fold Increase, 0.2 µM D3 + 10 pM NGF [25]: 2 fold | ChAT Fold Increase, 2 µM D3 [25]: 1.47 fold | ChAT Fold Increase, 2 µM D3 + 10 pM NGF [25]: 2.53 fold | ChAT Fold Increase, 20 µM D3 [25]: 1.56 fold | ChAT Fold Increase, 20 µM D3 + 10 pM NGF [25]: 2.63 fold | % Maximal binding of mAb MC192 [26]: 101% | % Binding of mAb 5C3 [27]: 38% | % Maximal binding of mAb 5C3 [28]: 95%
B1: D3 (EKHse-G-OH), β-turn peptidomimetic cyclic compound (peptide)
peptide: {5‑nitrobenzoyl}-EK[hSer]G-OH
modifications: bridge N-3
Optical Density (MTT survival, 4-3.6 cells), 10 µM D3 [17]: 95 OD | Optical Density (MTT survival, 4-3.6 cells), 10 µM D3 + 10 pM NGF [17]: 255 OD
